Assay results reported in the supplement of paper PMC10567573.

B1: C22orf15 (parent)
chain: PRGRAHLLPNPYQQDFLGLPEELR
B2: FEM1B (parent)
chain: TLAALLLNRSESDIRYLLGYVSQQ

Variants of: B1
Experiment: protein stability index of a GFP-peptide fusion (GPS, HEK-293T) (PSI 1-6); higher = more stable
Details: c terminus: a fixed tail appended
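Further: lentivirally expressed fusions sorted by FACS into six bins by GFP to DsRed ratio, PSI derived from sequencing read proportions per bin multiplied by bin number.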

Protein stability index: each site, then its substitutions
P20: L 2.76, V 2.46, W 2.26, N 3.62, S 3.39, K 3.38, Q 3.53, R 3.23, H 3.37, G 3.14, T 3.42, I 2.75, C 2.85, F 2.43, D 4.07, M 2.78, E 4.08, A 3.46, Y 2.42
E21: N 3.63, V 3.1, Q 3.06, F 3.42, Y 2.75, A 3.54, M 3.14, W 2.9, T 2.81, K 3.56, G 3.61, P 3.6, L 3.02, D 3.51, H 3.44, I 2.89, S 3.29, C 3.3, R 3.15
Q14: C 3.46, A 3.73, W 2.93, R 3.19, G 3.67, F 3.66, D 4.7, Y 2.98, L 3.54, M 3.56, V 3.26, N 3.91, E 4.47, T 3.77, I 3.19, K 4.01, S 3.96, P 4.5, H 3.92
R24: K 4.12, L 3.47, D 4.3, S 3.7, F 3.17, M 2.97, N 3.94, P 4.03, C 3.29, Q 3.89, E 4.17, T 4.11, G 3.8, V 3.63, I 3.64, A 3.05, H 3.3, Y 3.05, W 2.11
Y12: S 4.54, D 4.53, T 4.44, A 4.51, N 4.61, Q 4.07, F 3.5, W 2.87, M 4.61, C 3.84, E 4.54, P 4.41, H 4.02, L 3.85, K 4.11, V 4.17, I 4.36, R 4.33, G 4.87
F16: W 3.65, N 4.36, I 4.01, G 4.4, R 4.15, L 4.23, V 4.17, Q 3.84, T 4.17, D 4.92, Y 4.17, K 4.22, E 4.63, P 4.12, M 4.15, S 3.83, H 4.44, C 4.11, A 4.12
L23: T 3.94, W 3.45, P 3.6, S 4.17, D 4.49, C 4.08, G 4.41, A 4.24, M 4.33, Y 3.88, V 3.68, H 4.68, F 3.66, R 4.04, K 4.63, N 4.01, I 4.09, Q 4.51
E22: P 3.25, T 4.23, C 3.22, W 2.93, I 2.59, Y 2.52, G 3.61, F 3.27, D 4.06, L 2.3, A 3.47, K 3.47, M 2.64, S 3.62, Q 3.57, V 3.11, H 3.42, R 3.76, N 3.65
G18: F 3.24, T 4.05, N 4.25, M 3.98, Y 3.34, Q 4.27, W 2.98, H 4.19, V 3.73, S 3.94, R 3.32, D 4.66, P 3.71, L 3.7, I 3.49, A 4.25, K 4.13, C 3.9, E 4.36
P11: S 3.83, V 3.5, H 3.33, Q 4.35, K 4.04, M 3.72, W 2.71, T 4.1, R 3.33, Y 3.56, N 4.24, I 3.55, L 3.42
L17: K 4.42, R 4.03, M 3.44, C 4.04, N 4.28, H 4.41, Y 3.6, W 3.37, F 3.47, T 4.17, S 4.2, P 4.3, I 2.85, G 3.84, V 4.52, A 4.43, E 4.94, Q 4.4, D 4.87
Q13: A 3.7, S 3.56, Y 3.46, M 3.42, W 2.7, R 3.75, H 3.74, T 3.64, D 4.1, E 4.05, V 3.59, C 3.39, I 3.1, L 3.43, N 3.66, G 4.1, P 4.21, K 3.65, F 3.1
L19: Q 4.69, V 4, T 4.26, M 3.53, I 3.57, G 4.05, K 4.28, F 3.31, R 3.9, P 4.22, D 4.68, S 4, A 4.13, E 4.5, C 4.26, W 3.75, N 4.1, H 4.21, Y 3.82
D15: G 3.44, C 2.67, Y 3.2, V 3.36, Q 3.69, S 3.19, M 2.97, E 3.74, K 3.3, A 3.38, L 2.99, N 3.31, R 3.74, F 2.96, T 3.44, P 3.76, W 2.98, I 3.22, H 3.17

Variants of: B2
Experiment: as above
Details: c terminus: a fixed tail appended

Protein stability index of substitutions, site by site:
L6: H 1.85, P 2.21
V21: R 1.3, A 3.97, K 1.97, M 2.17, G 1.62
Q24: G 2.68, H 2.75
Y20: G 2.25, V 3.32, P 2.58, N 4.26, W 2.52
Y16: A 4.57, Q 3.05, C 2.91, K 2.83, L 2.01, M 2.45
Q23: H 2.27, L 1.09, P 1.36, T 3.07
T1: Q 1.85, K 2.89
L5: N 1.76, P 1.79, T 2.71, H 2.62, V 3.12, I 3.24
R15: Y 3.31, C 2.14
E11: H 3.15, S 3.2, K 2.83, A 2.44
L17: V 2.98, N 2.24, E 3.04, F 2.82, I 1.99
A3: I 2.65, P 2.08
D13: I 3.07, G 2.81
S12: A 2.19, L 2.36, H 2.48
N8: G 2.04
G19: K 3.24, Y 3.17, W 1.26
I14: K 1.96, F 2.7, E 2.85
S22: F 2.73, L 3.22, T 2.5
L18: D 1.64, R 3.15, I 2.8, W 3.01, F 2.34, Y 3.1
L7: K 2.38
R9: S 2.7, L 3.24, Y 2.52, D 2.9, H 1.58, C 2.13
A4: I 2.37, C 2.3
